Test results published in PMC2959089, “The intriguing Cyclophilin A-HIV-1 Vpr interaction: prolyl cis/trans isomerisation catalysis and specific binding” (BMC Structural Biology, 2010).
pKd: −log10 of the molar value.

Target: recombinant human Cyclophilin A (CypA) (human) (UniProt P62937)
Assay: SPR

Sequence of recombinant human Cyclophilin A (CypA) (human) (P62937 whole entry): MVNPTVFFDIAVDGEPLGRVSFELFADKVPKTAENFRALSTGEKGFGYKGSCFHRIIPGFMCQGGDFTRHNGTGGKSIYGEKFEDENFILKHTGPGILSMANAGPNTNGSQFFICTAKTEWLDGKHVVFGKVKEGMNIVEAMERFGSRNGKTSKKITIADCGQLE

## synthetic HIV-1 Vpr peptide sVpr^1-40
  pKd: 3.55
  ka1 (two-state model, association): 752 M⁻¹ s⁻¹
  ka2 (two-state model, forward rate): 0.0073 s⁻¹
  kd1 (two-state model, dissociation): 0.37 s⁻¹
  kd2 (two-state model, backward rate): 0.0099 s⁻¹

## synthetic mutant HIV-1 Vpr peptide sVpr^1-40 P5,10,14N
  pKd: 2.21
  ka1 (two-state model, association): 46 M⁻¹ s⁻¹
  ka2 (two-state model, forward rate): 0.0047 s⁻¹
  kd1 (two-state model, dissociation): 0.56 s⁻¹
  kd2 (two-state model, backward rate): 0.0048 s⁻¹
